Measurements reported in the supplement of paper PMC12764529.
± gives the half width of the 95% confidence interval.

Key:
[1] = folding stability dG unfold from trypsin proteolysis; higher = more stable
Method in brief: (§1)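 Designed mini-proteins with no cysteine and under 80 residues were kept only if AlphaFold2 dimer inter-PAE was above 15. In a PA-tagged cDNA display construct, they were digested with trypsin and chymotrypsin and then sequenced. K50 was inferred by Bayesian fitting of counts, and unfolding free energy was derived per protease or combined against a sequence-predicted unfolded-state K50 and a shared folded-state K50.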

[2] = folding stability dG unfold from chymotrypsin proteolysis; higher = more stable
Method in brief: as §1

[3] = folding stability dG unfold (combined trypsin and chymotrypsin); higher = more stable
Method in brief: as §1

| Sequence | folding stability dG unfold [1] [kcal/mol] | folding stability dG unfold [2] [kcal/mol] | folding stability dG unfold [3] [kcal/mol] |
| --- | --- | --- | --- |
| SAGGSAGGSAGLEVPPGVPVKIPVVYVDKENDYVIVTELTITPDSGEIFYDPKIIPKKELSAGGSAGGSAGG [r11_468_TrMRF] | 0.251 ± 0.063 | 0.734 ± 0.07 | 0.65 ± 0.099 |
| SAGGSAGGSAGLFIPETGLLVVYDPAPGTLHVFRITGGDGLEIEPVGEVEVDPDNPELGTAFSAGGSAGGSA [r18_448_TrMRF] | -0.284 ± 0.29 | 0.464 ± 0.16 | 0.327 ± 0.18 |
| SAGGSAGGSAGLKPEVEALVRVVLKLPEGERVVLVKVKTLEELFELDLPEVVSIEIRPLKSAGGSAGGSAGG [r17_290_TrMRF] | 1.28 ± 0.028 | 1.73 ± 0.049 | 1.6 ± 0.064 |
| SAGGSAGGSAGLTFTLPDGTKITIETLEDGSVKIKIETLTPDGKPLEAEFVIPGSHPDEDSAGGSAGGSAGG [r17_471_TrMRF] | 3.2 ± 0.15 | 3.76 ± 0.14 | 3.58 ± 0.13 |
| SAGGSAGGSAGLTLRVKVKVELEYDPETNELTLRVEVEIELFPPPPLVVLSKEQLEELEESAGGSAGGSAGG [r17_454_TrROS_Hall] | 2.67 ± 0.18 | 3.65 ± 0.24 | 3.21 ± 0.39 |
| SAGGSAGGSAGMAEKLPSLSLFYLPETGDLVLIREETYVDPNDPDKSIVKQEIYVLPPEYSAGGSAGGSAGG [r17_241_TrMRF] | 0.984 ± 0.051 | 1.74 ± 0.13 | 1.51 ± 0.096 |
| SAGGSAGGSAGMDKDGKWRRIPFMFVNPGDGYIFKWEIWIYPGGNIELEMEIIGPIKPGASAGGSAGGSAGG [r11_226_TrROS] | 3.13 ± 0.13 | 4.8 ± 0.061 | 4.28 ± 0.11 |
| SAGGSAGGSAGMEIEEEDGKLRLRLEAEFEVTVTTRNADGSTTETTARVRVELTFELPEESAGGSAGGSAGG [r17_103_TrROS_Hall] | 3.67 ± 0.29 | 3.89 ± 0.12 | 3.89 ± 0.22 |
| SAGGSAGGSAGMEIEEKGDYLVIRIKVKEGETIELPEGWEVVDVEYDPETEEVTIVIRRKSAGGSAGGSAGG [r11_942_TrROS_Hall] | 4.38 ± 0.18 | 2.88 ± 0.1 | 3.9 ± 0.28 |
| SAGGSAGGSAGMETTDSVITYPDGSVVTVTTLPDGTTRVTTFYPESGLTEEEIVPAAELGSAGGSAGGSAGG [r11_1015_JUSTAS] | 1.8 ± 0.086 | 2.56 ± 0.1 | 2.19 ± 0.086 |
| SAGGSAGGSAGMEYHLVVVRPPNGEELVLLTDDDPELARRAARELFPGAEVRVEPVVLPESAGGSAGGSAGG [r11_850_TrMRF] | 0.111 ± 0.034 | 0.0832 ± 0.069 | 0.099 ± 0.077 |
| SAGGSAGGSAGMKEGEIVEVTVPIPENGEEIKVKVVAPPSLTEEEARALAEEKAKEIYEKSAGGSAGGSAGG [r11_355_JUSTAS] | 0.0651 ± 0.062 | 0.99 ± 0.04 | 0.595 ± 0.077 |
| SAGGSAGGSAGMKIEVFPNTIKIYPENGKVLTFEAPDFGEEAIKEIAKAFPNAKIEPVEPSAGGSAGGSAGG [r17_545_TrMRF] | -0.338 ± 0.13 | -0.335 ± 0.16 | -0.189 ± 0.25 |
| SAGGSAGGSAGMKIKTKNGEVIEIKVDKKTGKIEITFPDGKKITIDAPNLTIEDIKKLLESAGGSAGGSAGG [r11_729_TrMRF] | 2.47 ± 0.064 | 2.34 ± 0.047 | 2.36 ± 0.051 |
| SAGGSAGGSAGMKPGETYLVRIRVKVDGKWYEKEVKFKSLEELKKAGIENIEEIEIRKLPSAGGSAGGSAGG [r17_290_TrROS_Hall] | 1.99 ± 0.033 | 2.72 ± 0.075 | 2.47 ± 0.16 |
| SAGGSAGGSAGMKPNEPDLVLLTTTVTLTTTETTTDEDGNTYTTTTTTTLTTTTLLPRGTSAGGSAGGSAGG [r17_523_TrROS_Hall] | 2.77 ± 0.17 | 3.94 ± 0.087 | 3.63 ± 0.1 |
| SAGGSAGGSAGMKSTVTQPGDTWTITITDPETGEVTTYTLTPAQLGELAASSRPVAVAPGSAGGSAGGSAGG [r11_741_JUSTAS] | 0.614 ± 0.053 | 1.5 ± 0.086 | 1.24 ± 0.058 |
| SAGGSAGGSAGMKTITKKVKSEEEAKKLAEELKKKGYKVEVEVKKDPKTGNYIVTITIELPESAGGSAGGSA [r18_455_JUSTAS] | 3.32 ± 0.18 | 3.89 ± 0.19 | 3.91 ± 0.39 |
| SAGGSAGGSAGMKTYTAEEIKNLPPGAKVIEVDGKLKIEIDGKIYTIEPGETVEIEPLEESAGGSAGGSAGG [r17_91_TrROS_Hall] | 1.57 ± 0.078 | 2.04 ± 0.043 | 1.89 ± 0.11 |
| SAGGSAGGSAGMKVEIEVYELPGGERPVKITVTYENKPKEYEKEAETEEEAEEFAKELLESAGGSAGGSAGG [r11_560_JUSTAS] | -0.237 ± 0.23 | 0.039 ± 0.58 | -0.0487 ± 0.57 |
| SAGGSAGGSAGMKVELSVAPDPATGEPVLLFHFEDFTLALNPNTGAIGVYLKDEVELFELSAGGSAGGSAGG [r17_544_TrMRF] | 2 ± 0.13 | 1.98 ± 0.1 | 2.03 ± 0.14 |

| Sequence | folding stability dG unfold [1] [kcal/mol] | folding stability dG unfold [2] [kcal/mol] | folding stability dG unfold [3] [kcal/mol] |
| --- | --- | --- | --- |
| SAGGSAGGSAGMKVLVLRIRIERPEEELSEEDRAKLPPVRIEIELVEVELPPEVEVREEESAGGSAGGSAGG [r17_310_TrROS_Hall] | 2.44 ± 0.14 | 3.86 ± 0.11 | 3.43 ± 0.2 |
| SAGGSAGGSAGMLWIHDPESGTLVMLHPKPDGEVNVQVWQFDPDNGKPEIKTVPADNIEASAGGSAGGSAGG [r11_285_TrROS] | 0.376 ± 0.046 | 1.22 ± 0.18 | 0.924 ± 0.091 |
| SAGGSAGGSAGMMVVRAKIKLPNGEVLEIENMSLEEILALAKEKGYEIVDIEVVAPDEEPSAGGSAGGSAGG [r11_283_TrMRF] | 4.77 ± 0.77 | 4.07 ± 0.14 | 4.37 ± 0.26 |
| SAGGSAGGSAGMNITITFPDGTVVEIPDVPPEYADVTPEKLKEEVLKKYPNVNVKVSPNGSAGGSAGGSAGG [r17_42_JUSTAS] | 0.302 ± 0.055 | 0.127 ± 0.038 | 0.101 ± 0.22 |
| SAGGSAGGSAGMNKKGKYTVIEELVINPKTNYLFKKKVTIYPDGKIEVKSELLGPILPTESAGGSAGGSAGG [r11_226_TrMRF] | 0.336 ± 0.051 | 1.4 ± 0.067 | 1.03 ± 0.06 |
| SAGGSAGGSAGMPIEKALEQADKNGRPVQIRVPNGRDIYITVKYKNGKYKIEIMPAEEIKSAGGSAGGSAGG [r17_463_TrROS] | 1.09 ± 0.047 | 1.89 ± 0.085 | 1.51 ± 0.18 |
| SAGGSAGGSAGMPPPVVVEPKRTSVVPESGLVIIPVTVFNPANGKATLTTYLYDPATGKLVLSAGGSAGGSA [r18_228_JUSTAS] | 0.734 ± 0.17 | 2.17 ± 0.058 | 1.72 ± 0.12 |
| SAGGSAGGSAGMRKYTWPFRIPLGGKPFEIRVEMEYDPSSGKHRIEITPEAKDLIKKKIFSAGGSAGGSAGG [r11_91_TrROS] | 0.59 ± 0.069 | 0.839 ± 0.088 | 0.875 ± 0.058 |
| SAGGSAGGSAGMRLLTVEYFDENGNPLSVEEIELYIERPPPPFLELEIDPRTGEPRFTGLSAGGSAGGSAGG [r17_348_JUSTAS] | 1.01 ± 0.078 | 1.68 ± 0.068 | 1.36 ± 0.14 |
| SAGGSAGGSAGMSTTPVAYKFTFTLPGGETLEREGTDVAALKEALKAEYGAVEITVTPVSSAGGSAGGSAGG [r17_508_JUSTAS] | 2.2 ± 0.042 | 2.07 ± 0.12 | 2.17 ± 0.1 |
| SAGGSAGGSAGMTFVITDKNGKETTISLEEAAKLLGIPVEEITEEELKEFLEKKVKTIEKISSAGGSAGGSA [r18_403_JUSTAS] | 0.898 ± 0.074 | 2.6 ± 0.046 | 2.18 ± 0.17 |
| SAGGSAGGSAGMTIEELKAKGYKVEVVKLPDSPEEVVVVTYPVPPGGIEKSVIPLSEVKLSAGGSAGGSAGG [r17_311_JUSTAS] | -0.00127 ± 0.025 | 0.601 ± 0.048 | 0.375 ± 0.052 |
| SAGGSAGGSAGMTIKEDPKTGTRVVRLPDGSVLYIEEKGDKIKKVYSDPVPPVPPGNPALASAGGSAGGSAG [r3_406_JUSTAS] | 0.217 ± 0.026 | 0.734 ± 0.048 | 0.574 ± 0.061 |
| SAGGSAGGSAGMTIQIEILTTGDLEETKKKLEEELKKKYPSSLKVIIKLSHVPASEAPSDLGSAGGSAGGSA [r18_498_JUSTAS] | 0.969 ± 0.025 | 1.19 ± 0.033 | 1.13 ± 0.14 |
| SAGGSAGGSAGMTLEELERLGYKVEVFRHPDTPEVYVRVEYPVPPGGLKRAVIPLKDVKLSAGGSAGGSAGG [r17_311_TrMRF] | -1.35 ± 0.52 | 0.93 ± 0.077 | 0.499 ± 0.039 |
| SAGGSAGGSAGMTLEELLRKAKPGQTLTLRVRVVERNEDGSLSEREFTFTFRLELKPEDLSAGGSAGGSAGG [r11_347_TrROS_Hall] | 2.55 ± 0.077 | 3.61 ± 0.06 | 3.15 ± 0.21 |
| SAGGSAGGSAGMTLEIEVDPDNKVIELKIYIGGKPVEMTIVVTPNSGYIRIPDGGWIPIESAGGSAGGSAGG [r11_395_TrROS] | 2.1 ± 0.053 | 3.37 ± 0.065 | 2.85 ± 0.083 |
| SAGGSAGGSAGMTLKVEVKVKVKVFDENGKLVREEEVTVEVEIELEPAPELRFLSEEELKSAGGSAGGSAGG [r17_325_TrROS_Hall] | 1.24 ± 0.053 | 2.63 ± 0.057 | 2.12 ± 0.11 |
| SAGGSAGGSAGMTLLVKNEDGYLVKIEITEVEVDENGELHLKVKVEVLPPLEEVEEVEEESAGGSAGGSAGG [r17_536_TrROS_Hall] | 1.4 ± 0.076 | 1.79 ± 0.054 | 1.65 ± 0.17 |
| SAGGSAGGSAGMTLRLKIRVYDPETREEVEEKEIEVELPPGASLEELLAALPPEQVEVEFSAGGSAGGSAGG [r17_339_TrROS_Hall] | 0.534 ± 0.12 | 1.1 ± 0.2 | 0.848 ± 0.15 |
